In US20160176924A1 (UNIVERSITY OF COPENHAGEN, published 2016):
Where two headings read alike, the source gives them in different places. Each block holds one binder with its values, some of them ahead of it. Numbered stars: 1 amine (or outer) side, 2 acyl side, 3 side chain; on linkers, the order of the positions; unused ones are H or OH. Square brackets hold non-standard residues; d marks the D form. Ends that are not written are not given here. * marks the point of attachment. CO(CH2CH2O)13CH2CH2CO = O=C(CCOCCOCCOCCOCCOCCOCCOCCOCCOCCOCCOCCOCCOCCC(=O)[*:2])[*:1]; 5FAM = O=C1OC2(c3ccc(O)cc3Oc3cc(O)ccc32)c2ccc(C(=O)*)cc21; NMeE = CN[C@@H](CCC(=O)O)C(=O)O

Columns and labels:
[1] = target: T1, HIS-PDZ1-2 protein (PSD-95 PDZ1-2 tandem, residues 61-249, with tag …) (human, UniProt P78352 61-249); assay: ITC / FP
[2] = target: T2, HIS-PDZ2 protein (PSD-95 PDZ2, residues 155-249, with tag …) (human, UniProt P78352 155-249); assay: FP competition, fluorescent NR2B probe
[3] = target: T1, HIS-PDZ1-2 protein (PSD-95 PDZ1-2 …); assay: FP competition, fluorescent NR2B probe; exact Ki not calculable
[4] = target: T1, HIS-PDZ1-2 protein (PSD-95 PDZ1-2 …); assay: ITC; dimeric ligand, two IETAV joined by a PEG4 linker (X = 4)
[5] = target: T3, HIS-PDZ1 protein (PSD-95 PDZ1, residues 61-151, with tag …) (human, UniProt P78352 61-151); assay: FP competition assay (Ki), fluorescent NR2B probe displaced from the PDZ domain; bar chart
T3 construct: expressed in E. coli

[6] = target: T2, HIS-PDZ2 protein (PSD-95 PDZ2, residues …); assay: as above
[7] = target: T3, HIS-PDZ1 protein (PSD-95 PDZ1, residues …); assay: FP competition, fluorescent NR2B probe
[8] = target: T2, HIS-PDZ2 protein (PSD-95 PDZ2, residues …); assay: FP competition, fluorescent NR2B probe; remark: listed apart in the source
[9] = target: T3, HIS-PDZ1 protein (PSD-95 PDZ1, residues …); assay: FP competition assay (Ki), fluorescent NR2B probe displaced from the PDZ domain; bar chart; remark: listed apart in the source
[10] = target: T2, HIS-PDZ2 protein (PSD-95 PDZ2, residues …); assay: as above; remark: listed apart in the source
[11] = target: T4, HIS-PDZ3 protein (PSD-95 PDZ3, residues 309-401, with tag …) (human, UniProt P78352 309-401); assay: FP competition, fluorescent CRIPT probe
[12] = target: T3, HIS-PDZ1 protein (PSD-95 PDZ1, residues …); assay: FP competition, fluorescent NR2B probe; remark: listed apart in the source
[13] = target: T2, HIS-PDZ2 protein (PSD-95 PDZ2, residues …); assay: FP competition, fluorescent NR2B probe; remark: listed apart in the source
[14] = target: T5, HIS-PDZ1-2 with tryptophan instead of isoleucine (PDZ1-2 I195W) (human, UniProt P78352 61-249); assay: stopped-flow fluorimetry, Trp fluorescence; stopped-flow fluorescence titration, not FP
T5 construct: Used in the stopped-flow fluorimetry of ligand 74; also called PDZ1-21195W (so in the source)

[15] = target: T4, HIS-PDZ3 protein (PSD-95 PDZ3, residues …); assay: FP competition: fluorescent CRIPT probe (50 nM) on PDZ3 (5 µM)
[16] = target: T1, HIS-PDZ1-2 protein (PSD-95 PDZ1-2 …); assay: ITC
[17] = target: T1, HIS-PDZ1-2 protein (PSD-95 PDZ1-2 …); assay: FP competition, fluorescent NR2B probe; exact Ki not calculable; remark: listed apart in the source
[18] = target: T2, HIS-PDZ2 protein (PSD-95 PDZ2, residues …); assay: FP competition, fluorescent NR2B probe; remark: listed apart in the source
[19] = target: T2, HIS-PDZ2 protein (PSD-95 PDZ2, residues …); assay: FP competition, alanine scan
[20] = target: T2, HIS-PDZ2 protein (PSD-95 PDZ2, residues …); assay: ITC
[21] = target: T1, HIS-PDZ1-2 protein (PSD-95 PDZ1-2 …); assay: FP competition: displaces fluorescent NR2B probe (50 nM) from PDZ1-2 (3 µM)
[22] = target: T2, HIS-PDZ2 protein (PSD-95 PDZ2, residues …); assay: FP competition: displaces fluorescent NR2B probe (50 nM) from PDZ2 (3 µM)
[23] = target: T1, HIS-PDZ1-2 protein (PSD-95 PDZ1-2 …); assay: FP competition: displaces fluorescent NR2B probe (50 nM) from PDZ1-2 (3 µM); remark: listed apart in the source
[24] = target: T3, HIS-PDZ1 protein (PSD-95 PDZ1, residues …); assay: FP competition: displaces fluorescent NR2B probe (50 nM) from PDZ1 (20 µM)
[25] = target: T1, HIS-PDZ1-2 protein (PSD-95 PDZ1-2 …); assay: FP competition, fluorescent NR2B probe
[26] = target: T4, HIS-PDZ3 protein (PSD-95 PDZ3, residues …); assay: FP saturation binding
[27] = target: T4, HIS-PDZ3 protein (PSD-95 PDZ3, residues …); assay: FP competition, fluorescent CRIPT probe; remark: listed apart in the source
[28] = target: T1, HIS-PDZ1-2 protein (PSD-95 PDZ1-2 …); assay: FP competition, fluorescent NR2B probe; remark: listed apart in the source
[29] = target: T1, HIS-PDZ1-2 protein (PSD-95 PDZ1-2 …); assay: FP saturation binding
[30] = target: T3, HIS-PDZ1 protein (PSD-95 PDZ1, residues …); assay: FP saturation binding
[31] = target: T2, HIS-PDZ2 protein (PSD-95 PDZ2, residues …); assay: FP saturation binding
[32] = target: T3, HIS-PDZ1 protein (PSD-95 PDZ1, residues …); assay: FP competition, fluorescent NR2B probe; remark: listed apart in the source

B1: (IETAV)2PEG4 (83) (peptide)
peptide: IETAV
modifications: also: dimer: two peptides joined at N-terminal amines by amide bonds through a PEG4-diacid linker
notes: Dimeric ligand
fold increase in affinity compared to monomeric IETAV (82) [1]: 176 fold | Ki [2]: 1.1 µM | Ki [3]: ~0.1 µM | Kd [4]: 0.011 µM

B2: SIESDV (6) (peptide)
peptide: SIESDV
notes: N-terminal truncation of the NR2B peptide (1)
binding result [5]: binds | binding result [6]: binds

Binder: ESNV [Compound 24 (ESDV with Asp P^-1 replaced by Asn)]
binding result [7]: binds | binding result [8]: binds

Binder: [NMeE]TAV (also called N-Methyl-ETAV (40)) [EMeTAV (40)]
Ki [11]: ~79 µM | Ki [12]: 11 µM | Ki [13]: 8.9 µM

Binder: {PEG12‑diacid}-IESDV (also: dimer: two peptides N-terminally joined via PEG12-diacid, Dimeric ligand) [(IESDV)2PEG12 (74)]
Ki [14]: ~0.1 µM | binding result [15]: no binding (tested: log(Conc/M) about -3.3) | Kd [16]: 0.09 µM | Ki [17]: ~0.1 µM | Ki [18]: 2.8 µM | Ki [2]: 3.1 µM | Ki [3]: ~0.1 µM

Binder: IEADV [Compound 12 (IESDV with Ser P^-2 replaced by Ala)]
fold increase in Ki on Ala substitution of Ser (P^-2) in pentapeptide (7) [19]: 7 fold

Binder: IESAV [Compound 13 (IESDV with Asp P^-1 replaced by Ala)]
fold higher Ki than CRIPT [11]: > 30 fold

Binder: {PEG4‑diacid}-IESDV (also: dimer: two peptides N-terminally joined via PEG4-diacid, Dimeric ligand) [(IESDV)2PEG4 (78)]
Kd [16]: 0.032 µM | Kd [20]: 3.3 µM | Ki [2]: 2.7 µM | Ki [3]: ~0.1 µM

Binder: IESDV (also called pentapeptide (7)) [IESDV (7)]
IC50 (read off the curve) [21]: ~9 µM | Kd [20]: 2.6 µM | IC50 (read off the curve) [22]: ~9 µM | Ki [2]: 3.1 µM | IC50 (read off the curve) [23]: ~10 µM | IC50 (read off the curve) [24]: ~50 µM

Binder: {PEG0‑diacid}-IESDV (also: dimer: two peptides N-terminally joined via PEG0-diacid, Dimeric ligand) [Compound 81 (IESDV dimerized with PEG0-diacid)]
IC50 (read off the curve) [21]: ~5 µM | Kd [16]: 1.1 µM | Ki [25]: 1.5 µM | Ki [2]: 3.1 µM

Binder: [NMeE]SDV [Compound 18 (ESDV with N-methylated Glu at P^-3)]
fold higher Ki compared to peptide 1 [7]: 1.3 fold | fold higher Ki compared to peptide 1 [8]: 3.7 fold

Binder: 5FAM-KSGLDTKNYKQTSV (also: entry also covers Cy5-CRIPT: CSG linker, Cy5-maleimide on Cys, also called 5-FAM-CRIPT) [5-FAM/Cy5-CRIPT]
Kd [26]: 3.5 µM

B4: 5-FAM/Cy5-NR2B (peptide)
peptide: 5FAM-KSGYEKLSSIESDV
modifications: also: entry also covers Cy5-NR2B: CSG linker, Cy5-maleimide on Cys
notes: Kd said to be independent of the fluorophore; also called 5-FAM-NR2B; 5-Fam-NR2B peptide
Kd [29]: 1.7 µM | Kd [30]: 20 µM | binding result [26]: no binding | Kd [31]: 3 µM

Further lines, with some results ahead:

binding result [9]: binds | binding result [10]: binds
Binder: ETNV (number 31 only on the sheet) [ETNV (31)]

binding result [9]: binds | binding result [10]: binds
Binder: [NMeE]TNV [Compound 38 (EMeTXV with X = Asn)]

binding result [9]: binds | binding result [10]: binds
Binder: ETQV (number 32 only on the sheet) [ETQV (32)]

fold reduction in Ki (so in the source) compared with CRIPT peptide (2) [11]: 14 fold
Binder: KQTSV [truncated CRIPT pentapeptide (KQTSV)]

binding result [5]: binds | binding result [6]: binds
B3: SSIESDV (5) (peptide)
peptide: SSIESDV
notes: as for B2

binding result [27]: no binding | Ki [28]: 6.8 µM
Binder: KSGYEKLSSIESDV (also called NR2B peptide (1); NR2B WT) [NR2B (1), non-fluorescent NR2B peptide KSG-YEKLSSIESDV]

Ki [28]: 5.5 µM | Ki [32]: 83 µM | Ki [18]: 55 µM
B5: (GE[N-Cyclohexylethyl]TDV)2PEG12 (75) (peptide)
peptide: {CO(CH2CH2O)13CH2CH2CO}-GETDV-OH
modifications: not fully specified (residue 2); printed as (GE[N-Cyclohexylethyl]TDV)2PEG12 (75); also: dimer: two peptides N-terminally joined via PEG12-diacid
notes: Dimeric ligand; also called (GE[R]TDV)2-PEG12 (75)
binding result [15]: no binding (tested: log(Conc/M) about -3.6)
